In paper PMC4499147:

Target: RNF168 (UniProt Q8IYW5)
Assay: anti-HA co-IP, FLAG blot
Settings: reference: wild-type HA-LSD1

binding against the reference (sites S137) | binding against the reference (sites S131) | Substance
weaker |  | LSD1 (from UniProt O60341) S137A
 | weaker | LSD1 (from UniProt O60341) S131A
